Results from US20170035903A1 (GAMAMABS PHARMA, published 2017).

B1: murine 12G4 antibody (antibody, from another filing, V domains shown)
VH: QVQLQQSGPELVKPGASVRMSCKASGYTFTSYHIHWVKQRPGQGLEWIGWIYPGDDSTKYNEKFKGKTTLTADKSSSTAYMLLSSLTSEDSAIYFCTRGDRFAYWGQGTLVTVSA
VL: QIVLTQSPAIMSASLGEGITLTCSASSSVRYIHWYQQKSGTSPKLLIYSTSNLASGVPSRFSGSGSGTFHSLTISSVEAEDAADYYCLQWSSYPWTFGGGTKLEIK
B2: humanized low fucose 3C23K antibody (antibody, human IgG1, kappa, V domains shown)
VH: QVRLVQSGAEVKKPGASVKVSCKASGYTFTSYHIHWVRQAPGQRLEWMGWIYPGDDSTKYSQKFQGRVTITRDTSASTAYMELSSLRSEDTAVYYCTRGDRFAYWGQGTLVTVSS
VL: DIQMTQSPSTLSASVGDRVTITCRASSSVRYIAWYQQKPGKAPKLLTYPTSSLKSGVPSRFSGSGSGTEFTLTISSLQPDDFATYYCLQWSSYPWTFGGGTKVEIKR
notes: Humanized from murine 12G4, low fucose, prepared as in WO2011/141653A1; also called unconjugated 3C23K; 3C23K unconjugated; copies: 2 + 2
B3: K4D-24 (antibody, V domains shown)
VH: RVRLVQSGAEVKKPGASVKVSCKASGYTFTSYHIHWVRQAPGQRLEWMGWIYPGDDSTKYSQKFQGRVTITRDTSASTAYMELSSLRSEDTAVYYCTRGDRFAYWGQGTLVTVSS
VL: DIQMTQSPSTLSASVGDRVTITCRASSSVRYIAWYQQKPGKAPKLLTYPTSSLKSGVPSRFSGSGSGTEFTLTISSLQPDDFATYYCLQWSSYPWTFGGGTKVEIK
notes: Variant of 3C23K with H-Q1R (Kabat)
B4: 6C59 (antibody, V domains shown)
VH: RVRLVQSGAEVKKPGASVKVSCKASGYTFTSYHIHWVRQAPGQRLEWMGWIYPGDDSTKYSQKFQGRVTITRDTSASTAYMELSSLRSEDTAVYYCTRGDRFAYWGQGTLVTVSS
VL: DIQMTQSPSTLSASVGDRVTITCRASPPVRYIAWYQQKPGKAPKLLTYPTSSLKSGVPSRFSGSGSGTEFTLTISSLQPDDFATYYCLQWSSYPWTFGGGTKVEIK
notes: Variant of 3C23K with H-Q1R, L-S27P and L-S28P (Kabat)

Experiments:
[1] = molecular target: T1, AMHR-II-ECD-Fc (R&D System) (human, UniProt Q16671 18-149); test: SPR (Bia3000), AMHR-II-ECD-Fc immobilised on CM5, antibody injected, Langmuir 1:1 fit
T1 construct: Bought construct; also called recombinant AMHR-II; AMHR-II recombinant protein; not shown: Fc part of the bought AMHR-II-ECD-Fc (R&D System)
Procedure: (§1) Immobilization of AMHRII was performed on a Bia3000 apparatus at 25° C. in HBS-EP (HEPES 10 mM, NaCl 150 mM, EDTA 3 mM, P20 surfactant 0.005%) at […] flow rate on CM5 sensor chip using EDC/NHS (1-Ethyl-3-3-dimethylaminopropyl carbodiimidehydrochloride) activation according to the manufacturer's instructions (GEHealthcare). Briefly, carboxyl functions of CM5 sensor chip were activated with 0.4M EDC/0.1M NHS during 7 min. A solution of AMHR-II-ECD-Fc (R&D System) at 2.5 μg/ml in sodium acetate buffer was injected during 12 min. An injection of 1M ethanolamine hydrochloride was used to neutralize the activation. […] A control reference surface was prepared using the same chemical treatment of without injection of AMHRII.
(§2) Antibodies at different concentrations (from 0.5 nM to 133 nM) were injected during 180s on AMHRII-coated flowcell and the control flowcell. After a dissociation step of 400s in running buffer, sensor surfaces were regenerated using 5 μl of Glycine-HCl pH1.7. All the sensorgrams were corrected by subtracting the low signal from the control reference surface. Kinetic parameters were evaluated from the sensorgrams using a Langmuir 1:1 fitting model on the BiaEvaluation 4.2 software.

[2] = molecular target: T2, human anti-Müllerian hormone type II receptor (AMHR-II) on COV434 cells (human, UniProt Q16671 18-573); test: flow cytometry on COV434 WT cells, antibody at 10 µg/ml
T2 construct: Receptor at the surface of the COV434 AMHR-II transfected line (about 20000 receptors) or the COV434 WT line (about 2000 receptors); also called AMHR2; AMHR-II surface receptor
T2 sequence: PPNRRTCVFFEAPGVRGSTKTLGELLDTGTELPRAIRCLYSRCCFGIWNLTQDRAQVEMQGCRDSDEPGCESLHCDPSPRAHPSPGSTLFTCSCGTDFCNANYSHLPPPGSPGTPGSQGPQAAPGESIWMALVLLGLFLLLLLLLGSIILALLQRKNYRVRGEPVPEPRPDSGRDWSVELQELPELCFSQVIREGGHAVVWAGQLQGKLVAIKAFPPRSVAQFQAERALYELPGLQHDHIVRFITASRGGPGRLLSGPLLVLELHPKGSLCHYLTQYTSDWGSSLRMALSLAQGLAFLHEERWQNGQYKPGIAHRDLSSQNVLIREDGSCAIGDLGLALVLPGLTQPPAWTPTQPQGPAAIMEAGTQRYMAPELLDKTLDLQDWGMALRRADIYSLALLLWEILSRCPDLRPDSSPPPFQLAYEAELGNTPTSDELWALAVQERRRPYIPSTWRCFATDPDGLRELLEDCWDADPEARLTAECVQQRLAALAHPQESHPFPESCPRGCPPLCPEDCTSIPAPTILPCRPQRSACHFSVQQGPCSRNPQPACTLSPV
Procedure: B) FACS histogram profiles of COV434WT staining at 10 μg/ml of antibodies. C) Percentage of COV434 WT cell staining with the antibodies.
(§3) The COV434 AMHR-II transfected and the COV434 WT cell lines were maintained in DMEM/GlutaMax (Gibco) supplemented with 10% FBS, penicillin 100 U/ml and Streptomycin 100 μg/ml. Geneticin at 666 μg/ml was added for the COV434 AMHR-II transfected cell line. […] After washes, Phycoerythrin-conjugated anti-human IgG antibody (1:200, Beckman-Coulter) was added for 1 hour at room temperature. FACS analysis of the resuspended cells was done on a BD Accuri™ C6 flow cytometer (BD Bioscience).
(§4) FACS analysis with COV434-AMHR-II transfected cell line is described in FIG. 16. […] The binding capacity of these variants was also assayed on the low expressing AMHR-II COV434 WT cell line.

[3] = molecular target: T2, human anti-Müllerian hormone type II …; test: flow cytometry on COV434 AMHR-II transfected cells, Hill slope fit
Procedure: (§5) Binding was determined by FACS analysis in the range of concentrations 0.034 to 8 μg/ml. Binding data curves were analyzed used specific binding with Hill slope equation from GraphPad Prism.
as §3, §4

[4] = molecular target: T1, AMHR-II-ECD-Fc (R&D System); test: ELISA, 50 ng per well AMHR-II-ECD-Fc coated, HRP anti-human F(ab')2 detection
Procedure: ELISA plates (96 wells, Maxisorp, NUnc) were coated overnight at +4° C. with 50 ng per well of AMHR-II-ECD-Fc (R&D System). Coated ELISA plates were blocked with PBS-BSA 4% for 2 hours at 37° C. and washed three times with PBS-Tween20 0.05%. […] The bound anti-AMHR-II antibodies were detected by adding HRP-conjugated F(ab′)2 goat anti-human F(ab′2) fragment specific (Interchim) diluted at 1:10000 and incubated for one hour at 37° C. Revelation was done with TMB (Sigma) and the reaction was stopped by adding H2SO4 1N (v:v). Absorbances were measured at 450 nm and binding data curves were analysis using GraphPad Prism.

[5] = molecular target: T1, AMHR-II-ECD-Fc (R&D System); test: SPR (Bia3000), AMHR-II-ECD-Fc immobilised; against parental murine 12G4
Procedure: as §1, §2

[6] = molecular target: T2, human anti-Müllerian hormone type II …; test: flow cytometry on COV434 AMHR2 transfected cells, 0.034 to 8 µg/ml
Procedure: as §5, §3, §4

[7] = molecular target: T2, human anti-Müllerian hormone type II …; test: flow cytometry on COV434 AMHR-II transfected cells
Procedure: as §5, §3, §4

Row | Binder | Ka [1] [M⁻¹] | Kd [1] [nM] | koff [1] [s⁻¹] | kon [1] [M⁻¹ s⁻¹] | percent of COV434 WT cells stained [2] [%] | Kapparent [3] [µg/mL] | EC50 [4] [nM] | fold higher association rate against 12G4 [5] [fold] | fold lower dissociation rate against 12G4 [5] [fold] | fold affinity improvement against 3C23K [6] [fold] | fold improvement of Kapparent against 3C23K [7] [fold]
1 | B1 | 1.27e+09 | 0.788 | 2.28e-05 | 28900 | – | – | – | – | – | – | –
2 | B2 | 1.81e+10 | 0.0553 | 6.93e-06 | 125000 | 9.8 | 2.2 | 0.018 | 5 | 3 | – | –
3 | B3 | – | – | – | – | 76.8 | 0.098 | – | – | – | 22 | 20
4 | B4 | – | – | – | – | 82.2 | 0.05 | – | – | – | – | 40
